Drawing on article PMC12095639, this text covers fold weaker binding than HSP70 with Asb10 for one substance.

This test concerns the target Ankyrin and SOCS Box-containing protein-10 (Asb10), rat, FLAG-tagged, expressed from adenovirus (Ad-Asb10) (rat). The test is described as follows: co-IP; NRVMs overexpressing Asb10; lysates incubated with antibody and Protein A&G magnet beads overnight at 4 °C, washed 5 times with 0.5% PBST; western blot of candidate interacting proteins (Fig. 3C). In general terms: Immunoblotting shows a protein as a band on a membrane.

Substance “HSC70, endogenous in NRVMs (from UniProt P63018 1-646) (natural protein)” displayed a fold weaker binding than HSP70 with Asb10 of 10 fold.
